Changes are numbered by the printed parent chain. Names may count otherwise.
Biological target: T1, CD3 epsilon homodimer protein (UniProt P07766 23-126)
T1 construct: also called CD3 (CD3 epsilon)
Experiment: SPR Biacore T200, antibody over immobilised CD3e homodimer;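 note: CD3 epsilon homodimer amine-coupled on a CM4 chip, run at 25 °C in HBS-EP+, Z = bound amount of each single-residue H chain variant over that of the parent antibody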

T1 sequence (P07766 23-126): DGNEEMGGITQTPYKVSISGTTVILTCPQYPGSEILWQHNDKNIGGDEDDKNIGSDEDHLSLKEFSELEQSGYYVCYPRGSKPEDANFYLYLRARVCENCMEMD

B1: CE115HA000 A52aY one-arm antibody (antibody, human IgG1, kappa, L234A L235A, N297A, name in Kabat numbering)
heavy: QVQLVESGGGVVQPGRSLRLSCAASGFTFSNAWMHWVRQAPGKGLEWVAQIKYKSNNYATYYAESVKGRFTISRDDSKNSLYLQMNSLKTEDTAVYYCRYVHYGAYYGVDAWGQGTTVTVSSASTKGPSVFPLAPSSKSTSGGTAALGCLVKDYFPEPVTVSWNSGALTSGVHTFPAVLQSSGLYSLSSVVTVPSSSLGTQTYICNVNHKPSNTKVDKKVEPKSCDKTHTCPPCPAPEAAGGPSVFLFPPKPKDTLMISRTPEVTCVVVDVSHEDPEVKFNWYVDGVEVHNAKTKPREEQYASTYRVVSVLTVLHQDWLNGKEYKCKVSNKALPAPIEKTISKAKGQPREPQVYTLPPSRCELTKNQVSLSCAVKGFYPSDIAVEWESNGQPENNYKTTPPVLDSDGSFFLVSKLTVDKSRWQQGNVFSCSVMHEALHNHYTQKSLSLSPDYKDDDDK
chain: EPKSSDKTHTCPPCPAPELLGGPSVFLFPPKPKDTLMISRTPEVTCVVVDVSHEDPEVKFNWYVDGVEVHNAKTKPREEQYNSTYRVVSVLTVLHQDWLNGKEYKCKVSNKALPAPIEKTISKAKGQPREPQVCTLPPSRDELTKNQVSLWCLVKGFYPSDIAVEWESNGQPENNYKTTPPVLDSDGSFFLYSKLTVDKSRWQQGNVFSCSVMHEALHNRYTQKSLSLSP
light: DIVMTQSPLSLPVTPGEPASISCRSSQSLVHSNRNTYLHWYQQKPGQAPRLLIYKVSNRFSGVPDRFSGSGSGTDFTLKISRVEAEDVGVYYCGQGTQVPYTFGQGTKLEIKRTVAAPSVFIFPPSDEQLKSGTASVVCLLNNFYPREAKVQWKVDNALQSGNSQESVTEQDSKDSTYSLSSTLTLSKADYEKHKVYACEVTHQGLSSPVTKSFNRGEC
notes: one-arm antibody
ratio of amounts bound (Z=Y/X vs CE115HA000): 0.31

B2: CE115HA000 A60D one-arm antibody (antibody, human IgG1, kappa, L234A L235A, N297A, name in Kabat numbering)
heavy: B1 heavy with Y53A, A63D
chain: B1 chain
light: B1 light
notes: one-arm antibody
ratio of amounts bound (Z=Y/X vs CE115HA000): 0.99

B3: CE115HA000 A56D one-arm antibody (antibody, human IgG1, kappa, L234A L235A, N297A, name in Kabat numbering)
heavy: B1 heavy with Y53A, A59D
chain: B1 chain
light: B1 light
notes: one-arm antibody
ratio of amounts bound (Z=Y/X vs CE115HA000): 0.51

B4: CE115HA000 A56K one-arm antibody (antibody, human IgG1, kappa, L234A L235A, N297A, name in Kabat numbering)
heavy: B1 heavy with Y53A, A59K
chain: B1 chain
light: B1 light
notes: one-arm antibody
ratio of amounts bound (Z=Y/X vs CE115HA000): 1.35

B5: CE115HA000 A56G one-arm antibody (antibody, human IgG1, kappa, L234A L235A, N297A, name in Kabat numbering)
heavy: B1 heavy with Y53A, A59G
chain: B1 chain
light: B1 light
notes: one-arm antibody
ratio of amounts bound (Z=Y/X vs CE115HA000): 0.61

B6: CE115HA000 D73E one-arm antibody (antibody, human IgG1, kappa, L234A L235A, N297A, name in Kabat numbering)
heavy: B1 heavy with Y53A, D76E
chain: B1 chain
light: B1 light
notes: one-arm antibody
ratio of amounts bound (Z=Y/X vs CE115HA000): 0.73

B7: CE115HA000 D73A one-arm antibody (antibody, human IgG1, kappa, L234A L235A, N297A, name in Kabat numbering)
heavy: B1 heavy with Y53A, D76A
chain: B1 chain
light: B1 light
notes: one-arm antibody
ratio of amounts bound (Z=Y/X vs CE115HA000): 0.83

B8: CE115HA000 A60E one-arm antibody (antibody, human IgG1, kappa, L234A L235A, N297A, name in Kabat numbering)
heavy: B1 heavy with Y53A, A63E
chain: B1 chain
light: B1 light
notes: one-arm antibody
ratio of amounts bound (Z=Y/X vs CE115HA000): 0.94

B9: CE115HA000 D72E one-arm antibody (antibody, human IgG1, kappa, L234A L235A, N297A, name in Kabat numbering)
heavy: B1 heavy with Y53A, D75E
chain: B1 chain
light: B1 light
notes: one-arm antibody
ratio of amounts bound (Z=Y/X vs CE115HA000): 1.05

B10: CE115HA000 D72A one-arm antibody (antibody, human IgG1, kappa, L234A L235A, N297A, name in Kabat numbering)
heavy: B1 heavy with Y53A, D75A
chain: B1 chain
light: B1 light
notes: one-arm antibody
ratio of amounts bound (Z=Y/X vs CE115HA000): 1.41

— patent publication US20240270846A1 (published 2024)
